Literature values in publication PMC2874015.

What was measured:
[1] = molecular target: GCN4 leucine zipper (Saccharomyces cerevisiae) (UniProt P03069)
[2] = molecular target: c-Jun leucine zipper (Homo sapiens) (UniProt P05412)

GCN4 leucine zipper, sequence (P03069 250-277): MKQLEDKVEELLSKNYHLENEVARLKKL
c-Jun leucine zipper, sequence (P05412 277-311): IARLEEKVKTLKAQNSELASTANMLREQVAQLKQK

In the case of “GCN4 leucine zipper (from UniProt P03069)”, the Kd [1] is given as 0.008 µM.
For “c-Jun leucine zipper (from UniProt P05412)”, the Kd [2] is listed as 448 µM.
